The values that follow are results of earlier work, collected in PMC7153410.

In series [1] the target is MD-2 (UniProt Q9JHF9).
Series [2] addresses TLR4-MD-2 (Homo sapiens) (UniProt O00206).
Series [3] deals with RAGE (Homo sapiens) (UniProt Q15109).
The target in series [4] is TLR4-MD-2 (Homo sapiens) (UniProt O00206). This is another data set of the same source.
The target in series [5] is RAGE (Homo sapiens) (UniProt Q15109). This is another data set of the same source.
Series [6] shares this target. This is another data set of the same source.
The target of series [7] is MD-2 (UniProt Q9JHF9). This is another data set of the same source.

Where two headings read alike, the source gives them in different places.

UniProt Q15109, sequence (Q15109 23-404): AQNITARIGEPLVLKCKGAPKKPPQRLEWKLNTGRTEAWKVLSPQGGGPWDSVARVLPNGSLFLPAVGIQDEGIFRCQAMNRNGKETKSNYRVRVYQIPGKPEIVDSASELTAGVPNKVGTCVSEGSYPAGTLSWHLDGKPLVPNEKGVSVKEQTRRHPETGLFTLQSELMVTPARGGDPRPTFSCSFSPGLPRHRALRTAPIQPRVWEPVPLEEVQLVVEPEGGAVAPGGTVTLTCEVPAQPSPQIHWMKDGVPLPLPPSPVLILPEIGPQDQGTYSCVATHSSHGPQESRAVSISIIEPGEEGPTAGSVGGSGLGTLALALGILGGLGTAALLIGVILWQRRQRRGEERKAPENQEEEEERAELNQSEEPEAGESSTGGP
UniProt Q9JHF9, sequence (Q9JHF9 19-160): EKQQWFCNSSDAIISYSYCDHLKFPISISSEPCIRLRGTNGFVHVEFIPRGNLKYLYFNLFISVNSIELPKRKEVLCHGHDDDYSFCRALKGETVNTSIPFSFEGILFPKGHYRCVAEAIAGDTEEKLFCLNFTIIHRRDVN
UniProt O00206, sequence (O00206 24-839, chain 1 of 2): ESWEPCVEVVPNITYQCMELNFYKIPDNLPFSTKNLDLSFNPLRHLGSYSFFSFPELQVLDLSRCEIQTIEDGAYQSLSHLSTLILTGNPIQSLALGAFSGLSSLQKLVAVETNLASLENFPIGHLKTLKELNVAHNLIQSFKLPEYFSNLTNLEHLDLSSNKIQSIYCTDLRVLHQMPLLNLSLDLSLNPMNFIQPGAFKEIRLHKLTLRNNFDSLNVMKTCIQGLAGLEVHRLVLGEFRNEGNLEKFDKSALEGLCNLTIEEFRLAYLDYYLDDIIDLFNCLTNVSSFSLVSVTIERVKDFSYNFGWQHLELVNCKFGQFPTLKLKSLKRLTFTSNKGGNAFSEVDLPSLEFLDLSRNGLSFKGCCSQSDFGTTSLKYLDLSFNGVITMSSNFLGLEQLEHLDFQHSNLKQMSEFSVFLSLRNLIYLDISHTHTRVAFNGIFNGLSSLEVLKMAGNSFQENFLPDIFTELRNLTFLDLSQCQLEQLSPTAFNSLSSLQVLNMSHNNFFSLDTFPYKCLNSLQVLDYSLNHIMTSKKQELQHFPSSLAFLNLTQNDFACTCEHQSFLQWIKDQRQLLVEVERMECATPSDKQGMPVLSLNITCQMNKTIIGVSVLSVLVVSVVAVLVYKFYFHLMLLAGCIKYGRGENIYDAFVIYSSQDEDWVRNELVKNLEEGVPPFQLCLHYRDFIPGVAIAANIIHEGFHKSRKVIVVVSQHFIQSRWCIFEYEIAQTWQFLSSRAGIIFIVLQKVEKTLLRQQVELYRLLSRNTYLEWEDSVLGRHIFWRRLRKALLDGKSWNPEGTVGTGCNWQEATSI
UniProt O00206, sequence (Q9Y6Y9 19-160, chain 2 of 2, further chain): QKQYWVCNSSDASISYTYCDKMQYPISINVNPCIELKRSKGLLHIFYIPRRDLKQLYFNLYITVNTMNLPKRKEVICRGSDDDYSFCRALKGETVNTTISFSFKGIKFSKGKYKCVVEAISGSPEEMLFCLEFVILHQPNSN

As to S100A8 2-89 (from UniProt P27005), in the series with MD-2 [1], the dissociation constant (Kd) was 0.73 µM.
In the case of S100A8-S100A9 (from UniProt P05109), the results for the dissociation constant Kd with TLR4-MD-2 (Homo sapiens) [2] and with RAGE (Homo sapiens) [3] were 0.0038 µM and 0.0094 µM, respectively.
Take S100A9 (from UniProt P06702): the dissociation constant (Kd) in the series with TLR4-MD-2 (Homo sapiens) [4] is 0.0021 µM; with RAGE (Homo sapiens) [5], 0.038 µM.
On to S100A12 (from UniProt P80511), for which the dissociation constant (Kd) in the series with RAGE (Homo sapiens) [6] is 0.09 µM.
On to SAA3 43-57 (from UniProt P04918), for which the Kd in the series with MD-2 [7] was 30 µM.
